Measured values: article PMC9410543

B1: unnamed (parent)
chain 1: VGDDSGGFSTTVSTEQNVPDPQVGITTMKDLKGKANRGKMDVSGVQAPVGAITTIEDPVLAKKVPETFPELKPGESRHTSDHMSIYKFMGRSHFLCTFTFNSNNKEYTFPITLSSTSNPPHGLPSTLRWFFNLFQLYRGPLDLTIIITGATDVDGMAWFTPVGLAVDTPWVEKESALSIDYKTALGAVRFNTRRTGNIQIRLPWYSYLYAVSGALDGLGDKTDSTFGLVSIQIANYNHSDEYLSFSCYLSVTEQSEFYFPRAPLNSNAMLSTESMMSRIAAGDLESSVDDPRSEEDKRFESHIECRKPYKELRLEVGKQRLKYAQEELSNEVLPPPRKMKGLFSQ
chain 2: not shown
B2: unnamed (parent)
chain 1: B1 chain 1
chain 2: MAVSESQLKKMVSKYKYRDLTVRETVNVITLYKDLKPVLDSYVFNDGSSRELMNLTGTIPVPYRGNTYNIPICLWLLDTYPYNPPICFVKPTSSMTIKTGKHVDANGKIYLPYLHEWKHPQSDLLGLIQVMIVVFGDEPPVFSRPISASYPPYQATGPPNTSYMPGMPGGISPYPSGYPPNPSGYPGCPYPPGGPYPATTSSQYPSQPPVTTVGPSRDGTISEDTIRASLISAVSDKLRWRMKEEMDRAQAELNALKRTEEDLKKGHQKLEEMVTRLDQEVAEVDKNIELLKKKDEELSSALEKMENQSENNDIDEVIIPTAPLYKQILNLYAEENAIEDTIFYLGEALRRGVIDLDVFLKHVRLLSRKQFQLRALMQKARKTAGLSDLY
B3: unnamed (parent)
chain 1: B1 chain 1
chain 2: MATFISVQLKKTSEVDLAKPLVKFIQQTYPSGGEEQAQYCRAAEELSKLRRAAVGRPLDKHEGALETLLRYYDQICSIEPKFPFSENQICLTFTWKDAFDKGSLFGGSVKLALASLGYEKSCVLFNCAALASQIAAEQNLDNDEGLKIAAKHYQFASGAFLHIKETVLSALSREPTVDISPDTVGTLSLIMLAQAQEVFFLKATRDKMKDAIIAKLANQAADYFGDAFKQCQYKDTLPKEVFPVLAAKHCIMQANAEYHQSILAKQQKKFGEEIARLQHAAELIKTVASRYDEYVNVKDFSDKINRALAAAKKDNDFIYHDRVPDLKDLDPIGKATLVKSTPVNVPISQKFTDLFEKMVPVSVQQSLAAYNQRKADLVNRSIAQMREATTLANGVLASLNLPAAIEDVSGDTVPQSILTKSRSVIEQGGIQTVDQLIKELPELLQRNREILDESLRLLDEEEATDNDLRAKFKERWQRTPSNELYKPLRAEGTNFRTVLDKAVQADGQVKECYQSHRDTIVLLCKPEPELNAAIPSANPAKTMQGSEVVNVLKSLLSNLDEVKKEREGLENDLKSVNFDMTSKFLTALAQDGVINEEALSVTELDRVYGGLTTKVQESLKKQEGLLKNIQVSHQEFSKMKQSNNEANLREEVLKNLATAYDNFVELVANLKEGTKFYNELTEILVRFQNKCSDIVFARKTERDELLKDLQQSIAREPSAPSIPTPAYQSSPAGGHAPTPPTPAPRTMPPTKPQPPARPPPPVLPANRAPSATAPSPVGAGTAAPAPSQTPGSAPPPQAQGPPYPTYPGYPGYCQMPMPMGYNPYAYGQYNMPYPPVYHQSPGQAPYPGPQQPSYPFPQPPQQSYYPQQ

Variants of: B1
Assay: protein-fragment complementation assay (split Gaussia luciferase, GLuc2 bait / GLuc1 prey)
Conditions: with partner chain of the complex shown;; read off a plot

How did the response (Log2 normalized LU) turn out when chain 1 Y309A K310A E311A L312A was run?
The response (Log2 normalized LU) was 3.

Variants of: B2
Assay: as above
Conditions: with partner chain of the complex shown;; read off a plot

For chain 1 Y309A K310A E311A L312A, which response (Log2 normalized LU) is on record?
Its response (Log2 normalized LU) is 4.4.

Variants of: B3
Assay: as above
Conditions: with partner chain of the complex shown;; read off a plot

With chain 1 Y309A K310A E311A L312A as the variant, how does the response (Log2 normalized LU) read?
The response (Log2 normalized LU) was 4.7.
